Data: patent publication US20260167731A1 (DOMAIN THERAPEUTICS, published 2026)
Values joined by “and” are separate entries in the source; they are usually repeats but may differ in a detail not shown here. Equal entries are not always repeated.

B1: Ref #1 (TPP-21360 of WO 2021/260210) (antibody, human IgG1, V domains shown)
VH: EVQLLESGGGLVQPGGSLRLSCAASGFTFSSYGMHWVRQAPGKGLEWVSAINWNGGSTGYADSVKGRFTISRDNSKNTLYLQMNSLRAEDTAVYYCARGHHSGYDGRFFDYWGQGTLVTVSS
VL: QSVLTQPPSVSGAPGQRVTISCTGSSSNIGAGYNVHWYQQLPGTAPKLLIYTNNRRPSGVPDRFSGSKSGTSASLAISGLRSEDEADYYCAAWDASLSGWVFGGGTKLTVL
notes: Benchmark; variable regions cloned into vectors encoding heavy and light chains of human IgG1, produced in CHO
B2: humanized anti-CCR8 mAb 2-12 (antibody, human IgG1, kappa)
heavy: not shown
light: DIVMTQAAPSLSVTPGESASISCTSSKSLLHSNGNTYLYWFLQKPGQSPQLLIYRMSNLASGVPDRFSGSGSGTAFTLKISRVEAEDVGVYYCMQHREYPFTFGSGTKLEIKRTVAAPSVFIFPPSDEQLKSGTASVVCLLNNFYPREAKVQWKVDNALQSGNSQESVTEQDSKDSTYSLSSTLTLSKADYEKHKVYACEVTHQGLSSPVTKSFNRGEC
notes: Humanized, human IgG1 / kappa, produced in CHO
B3: humanized anti-CCR8 mAb 2-15 (antibody, human IgG1, kappa, V domains shown)
VH: QVQLQQSGPEVVKPGASVKVSCKTSGYTFTEYTIHWVRQSHGQSLEWVGGINPNNGNTRYDQKFKGRVTITIDKSSSTAYMELRSLTSEDTAVYYCARVARSSGSGPYAMDYWGQGTTVTVSS
VL: DVVMTQSPLSLPVTLGDQASISCRCSQSLLHTNGDTYLHWYLQRPGQSPRLLIYKVSNRFSGVPDRFSGSGSGTDFTLKISRVEAEDVGVYFCSQSTHVPYTFGGGTKVEIKR
notes: Humanized, human IgG1 / kappa
B4: Ref #4 (137-H3L2 (LM-108) of WO 2022/078277) (antibody, human IgG1, V domains shown)
VH: EVQLVESGGGLVQPGGSLKLSCAASGFTFNTYAMNWVRQASGKGLEWVARIRSKANNYATYYADSVKDRFTISRDDSKNTLYLQMNNLKTEDTAVYYCVRDRSRGEDYAMDYWGQGTLVTVSS
VL: DIVMTQSPLSLPVTPGEPASISCRSSKSLLHSNANTYLYWFLQKPGQSPQLLIYRMSNLASGVPDRFSGSGSGTAFTLKISRVEAEDVGVYYCMQHLEYPFTFGQGTKLEIK
B5: Ref #3 (Anti-CCR8-1 of US 2021/0238292 A1) (antibody, human IgG1, V domains shown)
VH: QVQLVQSGAEVKKPGASVKVSCKASGYTFTSYYMHWVRQAPGQGLEWMGIINPSGGSTSYAQKFQGRVTMTRDTSTSTVYMELSSLRSEDTAVYYCARAVRNRFRFDYWGQGTLVTVSS
VL: QSALTQPASVSGSPGQSITISCTGTSSDVGSYNLVSWYQQHPGKAPKLMIYEVSKRPSGVSNRFSGSKSGNTASLTISGLQAEDEADYYCSSYAGSSTFVVFGGGTKLTVL

Legend:
hCCR8 SNAP-tag [1] = molecular target: T1, hCCR8 SNAP-tag (human, UniProt P51685 1-355, SNAP-tag labelled with Lumi4-Terbium); assay: HTRF Tag-lite, inhibition of hCCL1-AF647 binding to SNAP-tag hCCR8 on HEK-293
T1 construct: also called human CCR8 engineered with a SNAP-tag at the N-terminus; not shown: SNAP-tag at the N-terminus
Method: The inhibition of CCL1 binding to hCCR8 was evaluated with the Tag-Lite® technology from Cisbio (Revvity). Human CCR8 is engineered with a SNAP-tag at the N-terminus of the GPCR. hCCR8 SNAP-tag is transiently transfected on HEK-293 cell line using FuGene® (Promega, Madison, WI, USA). 48 hours after transfection, cells are labeled with the substrate Lumi4-Terbium® (Cisbio, Codolet, France) which covalently reacts with the SNAP-tag, for 1 h at 37° C. […] The Kd is previously obtained in a saturation binding assay on the same cells. […] The plate is next incubated at 21° C. for 2 h. Detection of HTRF signal is performed on the multiplate reader EnVision (PerkinElmer, Waltham, MA, USA). The HTRF (665/620) ratio is calculated by EnVision software, the data exported are considered as the total binding. The specific binding is calculated then by subtracting the non-specific signal from the total binding. The Ki and IC₅₀are calculated using the “One site—Fit Ki” and “One site—FitlogIC50” from GraphPad Prism 9 (Graphpad Software, San Diego, CA, USA), respectively.

hCCR8 SNAP-tag [2] = molecular target: T1, hCCR8 SNAP-tag; assay: cell-based or functional assay
human CCR8 [3] = molecular target: T2, human CCR8 (human, UniProt P51685 1-355); assay: cell-based or functional assay
human CCR8 [4] = molecular target: T2, human CCR8; assay: flow cytometry, hCCR8 transfected CHOK1 cells
Method: (§1) The same staining protocol was applied on human CCR8 transfected CHO cell line versus wild type CHO cell line, cutaneous T cell lymphoma HUT78 cell line and human activated T cell model.
(§2) Briefly, 1·10⁵ cells per well in a 96 well plate were incubated with a dilution of unconjugated anti-CCR8 mAb at 10 μg/mL then diluted at 1/3.33, 4 dilution points (during 30 min at 4° C.). In human activated T cells model, prior to mAb incubation, cells were first incubated with 200 nM of hCCL1 (R&D Systems, Minneapolis, MN, USA) or buffer PBS (Invitrogen by Thermofisher Scientific, Illkirch-Graffenstaden, France) supplemented by 2% Fetal Bovine Serum (Invitrogen by Thermofisher Scientific, Illkirch-Graffenstaden, France) and 2 mM EDTA (Invitrogen by Thermofisher Scientific, Illkirch-Graffenstaden, France) during 1 hour at 4° C. To determine EC50 value, 8 concentrations of anti-CCR8 mAb were tested. Unbound antibodies were washed away with PBS (Invitrogen by Thermofisher Scientific, Illkirch-Graffenstaden, France) supplemented by 2% Fetal Bovine Serum (Invitrogen by Thermofisher Scientific, Illkirch-Graffenstaden, France) and 2 mM EDTA (Invitrogen by Thermofisher Scientific, Illkirch-Graffenstaden, France). Subsequently, cells are centrifuged (5 min at 400 g) and bound antibody is detected with F(ab′)₂-Goat anti-Mouse IgG (H+L) Cross-Adsorbed Secondary Antibody, Alexa Fluor 488 (dilution 1/500) (Invitrogen by Thermofisher Scientific, Illkirch-Graffenstaden, France) or with F(ab′)₂-Goat anti-Human IgG Fc Secondary Antibody, PE (Invitrogen by Thermofisher Scientific, Illkirch-Graffenstaden, France) (dilution 1/1000) at 4° C. for 30 min. Detection reagent is washed away and cells are centrifuged (5 min at 400 g) and resuspended in 30 μL PBS. Bound detection antibody is quantified on a MacsQuant16 (Miltenyi, Gladbach, Germany) (B1 or B2 channel, 5000 events per acquisition). During the experiment, the respective isotype mAb controls (mouse IgG1, mouse IgG2a, mouse IgG2b, mouse IgG3 or human IgG1) (Biolegend, Amsterdam, The Netherlands) are included to exclude any unspecific binding events.

human CCR8 [5] = molecular target: T2, human CCR8; assay: flow cytometry, inhibition of hCCL1-AF647 binding to hCCR8 CHO cells
Method: The hCCR8 transfected CHO cell line was dispatched at a density of 1·10⁵ per well in a 96-well plate. Cells were incubated for 30 min at 4° C. with or without anti-CCR8 mAb tested at 10 μg/mL then diluted at 1/3. Unbound antibodies were washed away with PBS (Gibco, Villebon-sur-Yvette, France) supplemented by 2% Fetal Bovine Serum (Invitrogen by Thermofisher Scientific, Illkirch-Graffenstaden, France) and 2 mM EDTA. […] After washing unbound ligands, CCL1 bound detection is quantified on a MacsQuant16 (Miltenyi, Gladbach, Germany) (R1 channel, 5 000 events per acquisition).
For IC₅₀ determination, a concentration response curve is performed using 8 concentrations of mAb. Curves are fitted and IC₅₀ of CCL1 binding blocking activity is calculated using the sigmoidal dose-response (variable slope) model on GraphPad Prism 9 (GraphPad Software, San Diego, CA, USA).

human CCR8 [6] = molecular target: T2, human CCR8; assay: flow cytometry, HUT78 cells (endogenous CCR8)
Method: as §1, §2
EC50 values were determined via nonlinear fit “log(agonist)vs.response−Variable slope (four parameters)” function of Graphpad prism. EC50 values were not constantly determined in the same experiments.

human CCR8 [7] = molecular target: T2, human CCR8; assay: cell-based or functional assay; remark: listed apart in the source
[8] = molecular target: pm3, modified CCR8 related peptide (human, sulfated tyrosine at Y17); assay: ELISA on coated CCR8 peptide (500 ng/mL), OD [cont.]
Sequence of pm3, modified CCR8 related peptide (human, sulfated tyrosine at Y17) (peptide, as listed by the source): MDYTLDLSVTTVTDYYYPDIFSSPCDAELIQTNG
Method: (§3) The specific binding properties of antibodies were evaluated by ELISA with coated CCR8 related peptides (500 ng/mL) in carbonate/bicarbonate buffer. Different peptides were used as described in Table 1 (see Example 1). Each anti-CCR8 mAb was tested at 1 μg/mL then diluted at 1/10. After an incubation at room temperature during 90 min, unbound mAbs were removed by washings. […] After washings, 3,3′,5,5′-tetramethylbenzidine (TMB) (Interchim, Montlugon, France) was added for 15 min. Then the optical density (OD) was determined by using a multiplate reader (Tecan, Lyon, France) and correlated with mAb reactivity on the panel of coated peptides.

[9] = molecular target: pm5, modified CCR8 related peptide (human, sulfated tyrosines at Y15 and Y17); assay: as above
Sequence of pm5, modified CCR8 related peptide (human, sulfated tyrosines at Y15 and Y17) (peptide, as listed by the source): as above
Method: as §3

[10] = molecular target: pm4, modified CCR8 related peptide (human, sulfated tyrosines at Y15 and Y16); assay: as above
Sequence of pm4, modified CCR8 related peptide (human, sulfated tyrosines at Y15 and Y16) (peptide, as listed by the source): as above
Method: as §3

[11] = molecular target: T3, pwt1, unmodified CCR8 related peptide (human, none (non-sulfated Y15, Y16, Y17)); assay: as above
T3 construct: First 34 amino acids of human CCR8, synthetic; also called unmodified peptide
T3 sequence (peptide, as listed by the source): as above
Method: as §3

[12] = molecular target: pm8, modified CCR8 related peptide (human, sulfated tyrosines at Y15, Y16 and Y17); assay: as above
Sequence of pm8, modified CCR8 related peptide (human, sulfated tyrosines at Y15, Y16 and Y17) (peptide, as listed by the source): as above
Method: as §3

[13] = molecular target: pm6, modified CCR8 related peptide (human, sulfated tyrosines at Y16 and Y17); assay: as above
Sequence of pm6, modified CCR8 related peptide (human, sulfated tyrosines at Y16 and Y17) (peptide, as listed by the source): as above
Method: as §3

[14] = molecular target: pm2, modified CCR8 related peptide (human, sulfated tyrosine at Y16); assay: as above
Sequence of pm2, modified CCR8 related peptide (human, sulfated tyrosine at Y16) (peptide, as listed by the source): as above
Method: as §3

[15] = molecular target: pm1, modified CCR8 related peptide (human, sulfated tyrosine at Y15); assay: as above
Sequence of pm1, modified CCR8 related peptide (human, sulfated tyrosine at Y15) (peptide, as listed by the source): as above
Method: as §3

Binder | IC50 (hCCR8 SNAP-tag [1]) | Ki (hCCR8 SNAP-tag [1]) | % of internalization at 1 µg/ml (CCL1 at 300 nM = 100%), HTRF (hCCR8 SNAP-tag [2]) | % of internalization at 10 µg/ml (CCL1 at 300 nM = 100%), HTRF (hCCR8 SNAP-tag [2]) | IC50, CCL1 induced hCCR8 Gi2 signaling (BRET, HEK-293) (human CCR8 [3]) | % of labelled cells (human CCR8 [6]) | hCCL1 (100 nM) residual response in %, Protocol #2, mAb 0.08 µg/mL ([…] nM) (human CCR8 [7]) | hCCL1 (100 nM) residual response in %, Protocol #2, mAb 0.4 µg/mL (2.67 nM) (human CCR8 [7]) | hCCL1 (100 nM) residual response in %, Protocol #2, mAb 10 µg/mL (66.7 nM) (human CCR8 [7]) | hCCL1 (100 nM) residual response in %, Protocol #3, mAb 0.05 µg/mL (0.33 nM) (human CCR8 [7]) | hCCL1 (100 nM) residual response in %, Protocol #3, mAb 0.5 µg/mL (3.33 nM) (human CCR8 [7]) | hCCL1 (100 nM) residual response in %, Protocol #3, mAb 5 µg/mL (33.3 nM) (human CCR8 [7]) | binding result [8] | binding result [9] | binding result [10] | binding result [11] | binding result [12] | binding result [13] | binding result [14] | binding result [15] | other results
B1 | 0.45 µg/mL | 0.23 µg/mL | 126% | 111% | 0.101 µg/mL and 0.675 nM | – | – | – | – | – | – | – | – | – | – | – | – | – | – | – | % positive cells (human CCR8 [4]): 75.1%; IC50 (human CCR8 [5]): 0.65 µg/mL
B2 | 0.09 µg/mL | 0.05 µg/mL | – | – | 0.029 µg/mL and 0.194 nM | 23% | 62% | 38% | 30% | 94% | 63% | 39% | binds | binds | binds | binds | binds | binds | binds | binds | –
B3 | 0.04 µg/mL | 0.02 µg/mL | 44% | 36% | 0.034 µg/mL and 0.227 nM | 88% | 77% | 66% | 41% | 73% | 52% | 37% | binds | binds | binds | binds | binds | binds | binds | binds | EC50 (human CCR8 [6]): 0.2 nM
B4 | – | – | 95% | 103% | – | – | – | – | – | – | – | – | – | – | – | – | – | – | – | – | –
B5 | – | – | 100% | 90% | – | – | – | – | – | – | – | – | – | – | – | – | – | – | – | – | –
